These results are taken from patent US20170260534A1 (ANAEROPHARMA SCIENCE, published 2017).

The target of test [1] is T1, human PD-1 overexpressed on HEK293T cells (human, UniProt Q15116 25-288).
T1 construct: whole, on cells; also called hPD-1 expressing cells; human PD-1 overexpressing cell
In words: flow cytometry on HEK293T cells overexpressing hPD-1; anti-hCTLA-4scFv01-FLAG purified from PC4, used as in Example 24 (biotinylated Protein L and Brilliant Violet 421 Streptavidin) [d].

In test [2] the target is T2, Recombinant Human CTLA-4-Fc Chimera (BioLegend) (human, UniProt P16410 36-161, limits assumed).
T2 construct: Bought reagent; also called hCTLA-4; hCTLA-4 immobilized; not shown: human IgG1 Fc
T2 sequence (looked up): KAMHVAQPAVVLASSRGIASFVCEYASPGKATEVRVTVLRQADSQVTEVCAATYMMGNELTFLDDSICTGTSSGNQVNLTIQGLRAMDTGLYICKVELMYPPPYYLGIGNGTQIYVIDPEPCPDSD
Briefly: SPR (Biacore), Fc-fused hCTLA-4 captured by anti-human IgG (Fc), scFv as analyte, single cycle kinetics. Here is the method: The binding kinetic parameter of each hCTLA-4scFv01-FLAG purified to hCTLA-4 (fusion protein with human IgG1Fc) was measured by surface plasmon resonance using Biacore system (manufactured by GE Healthcare). To a substrate having a carboxyl methyl dextran-coated gold membrane, a mouse anti-human IgG (Fc) monoclonal antibody (manufactured by GE Healthcare) was bound in accordance with amine coupling, and Fc-fused recombinant hCTLA-4 (Biolegend) was captured as a ligand. As an analyte, scFv purified was used. Samples of scFv having a concentration of 0.7404, 2.2222, 6.6667, 20 and 60 nM were prepared and sequentially subjected to binding in order of increasing concentration in accordance with single cycle kinetics. Data obtained were analyzed by BIA evaluation software (manufactured by GE Healthcare).
The binding kinetic parameter to hCTLA-4 (fusion protein with human IgG1Fc) was measured by surface plasmon resonance using Biacore system. Thereafter, analysis was carried out in the same manner as in Example 29.

Test [3] has as its target T2, Recombinant Human CTLA-4-Fc Chimera …. In words: ELISA, antigen-Fc immobilized, scFv at 1000 ng/mL. The procedure: (§1) After the liquid was removed, 1×PBS (350 μL) for each was dispensed and the liquid was removed. This operation was repeated three times for washing. To each of the plates, 1% BSA solution (350 μL) was dispensed at room temperature and incubated for 2 hours for blocking. After the liquid was removed, 1×PBS (350 μL) for each was dispensed and the liquid was removed. This operation was repeated three times for washing.
(§2) To blank wells, the signal enhancing reagent alone was dispensed in an amount of 100 μL. […] After the liquid was removed, 1×PBS (350 μL for each) was dispensed and the liquid was removed. This operation was repeated three times for washing.
(§3) The plates were shielded from light and incubated at room temperature for 20 minutes. […] Absorbance was measured at 450 nm and 570 nm (reference wavelength).

For test [4], the target named is T3, mPD-1 (Fc Chimera, R&D Systems) (mouse, UniProt Q02242 25-167).
T3 construct: Species read from the label mPD-1 only; also called mPD-1 immobilized; Fc part of the bought chimera not given
T3 sequence (looked up): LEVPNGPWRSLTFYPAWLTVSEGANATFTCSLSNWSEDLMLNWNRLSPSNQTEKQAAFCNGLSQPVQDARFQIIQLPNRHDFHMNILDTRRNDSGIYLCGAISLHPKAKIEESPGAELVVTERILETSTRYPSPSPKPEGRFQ
Briefly: ELISA, antigen-Fc immobilized, scFv at 1000 ng/mL. The procedure: as §1, §2, §3

Test [5] has as its target T2, Recombinant Human CTLA-4-Fc Chimera …. Briefly: ELISA, antigen-Fc immobilized, scFv at 100 ng/mL. The procedure:
as §1, §2, §3

In test [6] the target is T3, mPD-1 (Fc Chimera, R&D Systems). Briefly: ELISA, antigen-Fc immobilized, scFv at 100 ng/mL. The procedure:
as §1, §2, §3

The target in test [7] is T2, Recombinant Human CTLA-4-Fc Chimera …. In words: ELISA, antigen-Fc immobilized, scFv at 1 ng/mL. The procedure:
as §1, §2, §3

Test [8] deals with T3, mPD-1 (Fc Chimera, R&D Systems). Briefly: ELISA, antigen-Fc immobilized, scFv at 1 ng/mL. Here is the method:
as §1, §2, §3

For test [9], the target named is T2, Recombinant Human CTLA-4-Fc Chimera …. In words: ELISA, antigen-Fc immobilized, scFv at 10 ng/mL. The procedure:
as §1, §2, §3

Test [10] concerns the target T3, mPD-1 (Fc Chimera, R&D Systems). Briefly: ELISA, antigen-Fc immobilized, scFv at 10 ng/mL. Here is the method: as §1, §2, §3

Numbering of substitutions follows the chain as printed. Names may count otherwise.

T1 sequence (Q15116 25-288): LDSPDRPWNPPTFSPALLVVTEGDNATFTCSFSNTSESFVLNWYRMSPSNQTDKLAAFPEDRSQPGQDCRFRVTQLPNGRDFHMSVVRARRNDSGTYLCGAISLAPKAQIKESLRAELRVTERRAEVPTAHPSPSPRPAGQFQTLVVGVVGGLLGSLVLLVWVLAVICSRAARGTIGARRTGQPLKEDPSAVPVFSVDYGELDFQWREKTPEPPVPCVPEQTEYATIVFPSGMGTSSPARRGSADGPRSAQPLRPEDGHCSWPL

B1: anti-hCTLA-4scFv01-FLAG purified from single-expression strain C1F or from co-expression strain PC4 (scFv)
scFv: ATLTPQVQLVESGGGVVQPGRSLRLSCAASGFTFSSYGMHWVRQAPGKGLEWVAVIWYDGSNKYYADSVKGRFTISRDNSKNTLYLQMNSLRAEDTAVYYCARDPRGATLYYYYYGMDVWGQGTTVTVSSGGGGSGGGGSGGGGSDIQMTQSPSSLSASVGDRVTITCRASQSINSYLDWYQQKPGKAPKLLIYAASSLQSGVPSRFSGSGSGTDFTLTISSLQPEDFATYYCQQYYSTPFTFGPGTKVEIKDYKDDDDK
notes: Plasmid pP30SP50L5-hCTLA-4scFv01-FLAG (pC1F) and pPC4; PC4 and PC6 secrete the same scFv as C1F; Signal peptide SP50 left out; also called scFv derived from C1F strain; hCTLA-4scFv01-FLAG purified from PC4 strain
Turning to B1, in [1], the binding result was “no binding (tested: 1 ug/mL)”. For the same molecule, in test [2], the Kd worked out at 1.08 nM, the koff is 0.000996 s⁻¹ and the on-rate (kon) was 918000 M⁻¹ s⁻¹.

B2: anti-hCTLA-4scFv01 (not tagged) of single-expression strain C2TLB (scFv)
scFv: AQVQLVESGGGVVQPGRSLRLSCAASGFTFSSYGMHWVRQAPGKGLEWVAVIWYDGSNKYYADSVKGRFTISRDNSKNTLYLQMNSLRAEDTAVYYCARDPRGATLYYYYYGMDVWGQGTTVTVSSGGGGSGGGGSGGGGSDIQMTQSPSSLSASVGDRVTITCRASQSINSYLDWYQQKPGKAPKLLIYAASSLQSGVPSRFSGSGSGTDFTLTISSLQPEDFATYYCQQYYSTPFTFGPGTKVEIK
notes: Plasmid pC2TLB; PC2TL and PC7TL secrete the same scFv; Signal peptide SP67 left out; also called scFv derived from C2TLB strain; anti-hCTLA-4scFv01 in culture supernatants of PC2TL and PC7TL
In the case of B2, in test [2], the Kd is 0.98 nM, the koff was 0.000961 s⁻¹ and the on-rate (kon) came out at 981000 M⁻¹ s⁻¹.

B3: anti-hCTLA-4scFv01 (not tagged) of single-expression strain C3TLB (scFv)
scFv: B2 scFv with A1D
notes: Plasmid pC3TLB; PC3TL, PC5TL and PC8TL secrete the same scFv; Signal peptide SP68 left out; also called scFv derived from C3TLB strain; anti-hCTLA-4scFv01 in culture supernatants of PC3TL, PC5TL and PC8TL
Turning to B3, in [2], the Kd was 1.29 nM, the dissociation rate constant (koff) was found to be 0.000996 s⁻¹ and the kon was 773000 M⁻¹ s⁻¹.

B4: anti-hCTLA-4scFv01-FLAG purified from single-expression strain C2F (scFv)
scFv: AQVQLVESGGGVVQPGRSLRLSCAASGFTFSSYGMHWVRQAPGKGLEWVAVIWYDGSNKYYADSVKGRFTISRDNSKNTLYLQMNSLRAEDTAVYYCARDPRGATLYYYYYGMDVWGQGTTVTVSSGGGGSGGGGSGGGGSDIQMTQSPSSLSASVGDRVTITCRASQSINSYLDWYQQKPGKAPKLLIYAASSLQSGVPSRFSGSGSGTDFTLTISSLQPEDFATYYCQQYYSTPFTFGPGTKVEIKDYKDDDDK
notes: Plasmid pP30SP67L1-hCTLA-4scFv01-FLAG (pC2F); PC2 and PC7 secrete the same scFv; Signal peptide SP67 left out; also called scFv derived from C2F strain
B4: in test [2], the Kd is 2.28 nM, the koff amounted to 0.00103 s⁻¹ and the kon worked out at 452000 M⁻¹ s⁻¹.

B5: anti-hCTLA-4scFv01-FLAG purified from single-expression strain C3F (scFv)
scFv: B4 scFv with A1D
notes: Plasmid pP30SP68L1-hCTLA-4scFv01-FLAG (pC3F); PC3, PC5 and PC8 secrete the same scFv; also called scFv derived from C3F strain
As for B5, in test [2], the Kd was 2.97 nM, the off-rate constant (koff) was 0.00103 s⁻¹ and the association rate constant (kon) was 347000 M⁻¹ s⁻¹.

B6: anti-hCTLA-4scFv01 (not tagged) of single-expression strain C1TLB (scFv)
scFv: ATLTPQVQLVESGGGVVQPGRSLRLSCAASGFTFSSYGMHWVRQAPGKGLEWVAVIWYDGSNKYYADSVKGRFTISRDNSKNTLYLQMNSLRAEDTAVYYCARDPRGATLYYYYYGMDVWGQGTTVTVSSGGGGSGGGGSGGGGSDIQMTQSPSSLSASVGDRVTITCRASQSINSYLDWYQQKPGKAPKLLIYAASSLQSGVPSRFSGSGSGTDFTLTISSLQPEDFATYYCQQYYSTPFTFGPGTKVEIK
notes: Plasmid pC1TLB; PC4TL and PC6TL secrete the same scFv; Signal peptide SP50 left out; also called scFv derived from C1TLB strain; anti-hCTLA-4scFv01 in culture supernatants of PC4TL and PC6TL
In the case of B6, in test [2], the dissociation constant Kd was determined as 1.48 nM, the off-rate (koff) amounted to 0.00098 s⁻¹ and the association rate constant (kon) was 661000 M⁻¹ s⁻¹.

B7: anti-hPD-1scFv03 purified from the culture supernatant of co-expression strain PC1 (scFv)
scFv: DSAQTSAVVSSRSFPKASSVQVQLVESGGGVVQPGRSLRLDCKASGITFSNSGMHWVRQAPGKGLEWVAVIWYDGSKRYYADSVKGRFTISRDNSKNTLFLQMNSLRAEDTAVYYCATNDDYWGQGTLVTVSSGGGGSGGGGSGGGGSEIVLTQSPATLSLSPGERATLSCRASQSVSSYLAWYQQKPGQAPRLLIYDASNRATGIPARFSGSGSGTDFTLTISSLEPEDFAVYYCQQSSNWPRTFGQGTKVEIKHHHHHH
notes: Secreted from the cassette SP7L20-anti-hPD-1scFv03-His tag; also called anti-PD-1scFv03
Turning to B7, the OD value in test [3] is 0.341 OD; in [4] it was 0.107 OD; in [5], -0.018 OD; in [6] it was -0.049 OD; in [7] it was -0.062 OD; in [8], -0.059 OD. Besides, the OD value was -0.055 OD in [9] and -0.057 OD in test [10].
